Measured values from patent publication US20240262905A1 (PANDION OPERATIONS, published 2024).

Tests used:
human DSG-3 [1] = biological target: T1, human DSG-3 (human, UniProt P32926 50-615, limits assumed); assay: bridging ELISA, plate coated with hDSG-3, test article at 1 nM, then his-tagged hCD25 1 ug/mL, anti-His-HRP detection
T1 construct: Soluble analyte (Octet) and plate coat (ELISA); also called hDSG-3
T1 sequence (looked up): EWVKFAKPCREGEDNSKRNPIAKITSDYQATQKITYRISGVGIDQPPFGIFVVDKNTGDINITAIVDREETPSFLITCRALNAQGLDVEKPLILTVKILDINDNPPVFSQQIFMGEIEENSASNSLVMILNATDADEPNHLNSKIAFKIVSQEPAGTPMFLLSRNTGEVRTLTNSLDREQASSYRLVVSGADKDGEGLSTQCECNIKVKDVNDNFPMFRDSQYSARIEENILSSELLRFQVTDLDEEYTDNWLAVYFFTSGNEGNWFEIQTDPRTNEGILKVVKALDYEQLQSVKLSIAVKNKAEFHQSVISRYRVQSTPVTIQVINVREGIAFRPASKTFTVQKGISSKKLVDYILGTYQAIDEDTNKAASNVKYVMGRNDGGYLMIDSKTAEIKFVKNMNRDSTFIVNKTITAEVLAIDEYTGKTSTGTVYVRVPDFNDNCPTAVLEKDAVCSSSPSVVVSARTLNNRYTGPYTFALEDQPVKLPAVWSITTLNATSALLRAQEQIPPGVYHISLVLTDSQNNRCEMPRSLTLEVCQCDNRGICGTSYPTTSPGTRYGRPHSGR

human DSG-3 [2] = biological target: T1, human DSG-3; assay: bridging ELISA, plate coated with hDSG-3, test article at 10 nM, then his-tagged hCD25 1 ug/mL, anti-His-HRP detection
human DSG-3 [3] = biological target: T1, human DSG-3; assay: bridging ELISA, plate coated with hDSG-3, test article at 100 nM, then his-tagged hCD25 1 ug/mL, anti-His-HRP detection
human CD25 = biological target: T2, human CD25 (human, UniProt P01589 22-213, limits assumed); assay: BLI (Octet), test article captured on anti-human Fc biosensors, 1:1 global fit (method text names desmogleins as analyte; result told for human CD25)
T2 construct: construct not described
T2 sequence (looked up): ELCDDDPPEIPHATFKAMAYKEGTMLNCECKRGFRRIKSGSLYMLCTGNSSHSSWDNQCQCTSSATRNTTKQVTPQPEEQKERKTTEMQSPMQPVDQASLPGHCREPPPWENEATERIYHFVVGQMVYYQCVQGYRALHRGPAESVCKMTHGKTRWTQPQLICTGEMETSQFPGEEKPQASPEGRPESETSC

B1: IL2DSGAB7 (other)
heavy: EVQLVESGGGLVQPGRSLRLSCAASGFTFDDYAMHWVRQAPGKGLEWVSGISWNSGSIDYADSVKGRFTISRDNAKNSLYLQMNSLRVEDTALYYCAKDGSRVFGVGGGFDFWGQGTMVTVSSASTKGPSVFPLAPSSKSTSGGTAALGCLVKDYFPEPVTVSWNSGALTSGVHTFPAVLQSSGLYSLSSVVTVPSSSLGTQTYICNVNHKPSNTKVDKKVEPKSCDKTHTCPPCPAPEAAGAPSVFLFPPKPKDTLMISRTPEVTCVVVDVSHEDPEVKFNWYVDGVEVHNAKTKPREEQYNSTYRVVSVLTVLHQDWLNGKEYKCKVSNKALPAPIEKTISKAKGQPREPQVYTLPPSREEMTKNQVSLTCLVKGFYPSDIAVEWESNGQPENNYKTTPPVLDSDGSFFLYSKLTVDKSRWQQGNVFSCSVMHEALHNHYTQKSLSLSPG
light: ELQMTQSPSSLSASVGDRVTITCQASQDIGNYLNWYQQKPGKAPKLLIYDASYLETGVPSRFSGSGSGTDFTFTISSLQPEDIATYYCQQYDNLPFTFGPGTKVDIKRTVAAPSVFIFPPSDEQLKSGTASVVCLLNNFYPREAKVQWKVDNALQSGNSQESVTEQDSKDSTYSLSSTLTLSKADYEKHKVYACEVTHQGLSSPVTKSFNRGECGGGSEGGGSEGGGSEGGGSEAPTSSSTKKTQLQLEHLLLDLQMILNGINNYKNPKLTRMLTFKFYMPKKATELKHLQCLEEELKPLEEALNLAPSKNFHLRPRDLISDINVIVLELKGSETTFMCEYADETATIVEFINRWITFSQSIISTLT
notes: also called TL2DSGAB7
B1 was tested, and the “absorbance (OD450 nm)” value (human DSG-3 [1]) was 0.36, the “absorbance (OD450 nm)” value (human DSG-3 [2]) was 0.55 and the “absorbance (OD450 nm)” value (human DSG-3 [3]) was 1.2. For the same binder, the Kd (human CD25) was 3.5 nM.

B2: IL2DSGAB8 (other)
heavy: QVQLVQSGGGVVQSGRSLRLSCAASGFTFSDYAMHWVRQAPGKGLEWVAVISHGGTKKYTGDSVKGRFIISRDNSKNTVFLQMNSLRVEDTAVYYCARDRVEGYVWGGTFDHWGQGTPVTVSSASTKGPSVFPLAPSSKSTSGGTAALGCLVKDYFPEPVTVSWNSGALTSGVHTFPAVLQSSGLYSLSSVVTVPSSSLGTQTYICNVNHKPSNTKVDKKVEPKSCDKTHTCPPCPAPEAAGAPSVFLFPPKPKDTLMISRTPEVTCVVVDVSHEDPEVKFNWYVDGVEVHNAKTKPREEQYNSTYRVVSVLTVLHQDWLNGKEYKCKVSNKALPAPIEKTISKAKGQPREPQVYTLPPSREEMTKNQVSLTCLVKGFYPSDIAVEWESNGQPENNYKTTPPVLDSDGSFFLYSKLTVDKSRWQQGNVFSCSVMHEALHNHYTQKSLSLSPG
light: ELVLTQPPSVPVAPGQTANISCGGNNIGRQTVHWYQQKPGQAPVLVVFDDSDRPAGIPERFSGSNSGNTATLTISRVEAGDEADYYCQVWDSSSDHVVFGGGTQLTVLGQPKAAPSVTLFPPSSEELQANKATLVCLISDFYPGAVTVAWKADSSPVKAGVETTTPSKQSNNKYAASSYLSLTPEQWKSHRSYSCQVTHEGSTVEKTVAPTECSAEEEKAEEEKAEEEKAEEEKAPTSSSTKKTQLQLEHLLLDLQMILNGINNYKNPKLTRMLTFKFYMPKKATELKHLQCLEEELKPLEEALNLAPSKNFHLRPRDLISDINVIVLELKGSETTFMCEYADETATIVEFINRWITFSQSIISTLT
B2 was tested, and the “absorbance (OD450 nm)” value (human DSG-3 [1]) was 0.29, the “absorbance (OD450 nm)” value (human DSG-3 [2]) was 0.41 and the “absorbance (OD450 nm)” value (human DSG-3 [3]) was 1. The Kd (human CD25) was 3.5 nM.

B3: IL2DSGAB5 (other)
heavy: QVQLQESGPGPVKPSGTLSLTCGVSGGSISSNHWWTWVRQPPGKGLEWIGEIYHNGSTFLNPSLKSRVTISVDKSNNQFSLKLTSVTAADTAVYYCARGWHRTGFRGYPSHWYFDLWGRGTLVSVSSASTKGPSVFPLAPSSKSTSGGTAALGCLVKDYFPEPVTVSWNSGALTSGVHTFPAVLQSSGLYSLSSVVTVPSSSLGTQTYICNVNHKPSNTKVDKKVEPKSCDKTHTCPPCPAPEAAGAPSVFLFPPKPKDTLMISRTPEVTCVVVDVSHEDPEVKFNWYVDGVEVHNAKTKPREEQYNSTYRVVSVLTVLHQDWLNGKEYKCKVSNKALPAPIEKTISKAKGQPREPQVYTLPPSREEMTKNQVSLTCLVKGFYPSDIAVEWESNGQPENNYKTTPPVLDSDGSFFLYSKLTVDKSRWQQGNVFSCSVMHEALHNHYTQKSLSLSPG
light: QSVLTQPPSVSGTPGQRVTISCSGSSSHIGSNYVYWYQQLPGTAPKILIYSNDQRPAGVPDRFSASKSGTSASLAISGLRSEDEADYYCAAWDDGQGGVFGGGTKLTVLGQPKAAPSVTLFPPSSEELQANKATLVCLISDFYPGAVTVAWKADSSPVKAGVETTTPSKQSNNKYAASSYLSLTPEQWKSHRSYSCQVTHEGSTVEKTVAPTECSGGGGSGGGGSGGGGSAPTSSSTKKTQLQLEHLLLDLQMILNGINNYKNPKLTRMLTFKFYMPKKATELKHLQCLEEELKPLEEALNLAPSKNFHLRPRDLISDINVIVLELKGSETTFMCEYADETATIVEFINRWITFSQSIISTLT
notes: SD1 anti-desmoglein human IgG1 with the IL-2 mutein fused to the C-terminus of the light chain; also called TL2DSGAB5
For B3, the “absorbance (OD450 nm)” value (human DSG-3 [1]) was 0.27, the “absorbance (OD450 nm)” value (human DSG-3 [2]) was 0.483 and the “absorbance (OD450 nm)” value (human DSG-3 [3]) was 0.965. For the same binder, the Kd (human CD25) was 3.4 nM.
